Assay results as given in US20180009892A1 (EUREKA THERAPEUTICS, published 2018).

Legend:
mouse ROR1-ECD = target: T1, mouse ROR1-ECD (mouse, UniProt Q9Z139 30-406); test: phage antibody protein ELISA
T1 construct: extracellular domain; also called mROR1
Description: (§1) Binding specificities of the 45 phage antibodies were determined by protein ELISA against human ROR1-ECD, human ROR2-ECD and mouse ROR1-ECD (FIG. 12).

human ROR2-ECD = target: T2, human ROR2-ECD (human, UniProt Q01974 34-403); test: phage antibody protein ELISA
T2 construct: extracellular domain; also called hROR2
Description: as §1

[1] = target: T3, human ROR1 extracellular domain (ECD) protein (human, UniProt Q01973 30-406); test: competitive phage ELISA: soluble ROR1 against ROR1-coated plate
T3 construct: also called hROR1-ECD; human ROR1-ECD
Description: Purified phage antibodies were first diluted serially in PBST buffer, and tested for binding to a ROR1-coated plate. The dilution that gave 50-80% saturating signal was used in the solution binding assay in which phage were first incubated with increasing concentration of ROR1 for one to two hours, and then transferred to a ROR1-coated plate for 10-15 minutes to capture the unbound phage.

[2] = target: T4, ROR1 extracellular domain Fc-fusion, dimer (human, UniProt Q01973 30-406); test: SPR, immobilised ROR1 dimer, antibody injected, 1:1 model
T4 construct: also called ROR1 dimer; hROR1 dimeric ECD-Fc fusion protein; not shown: Fc part
Description: (§2) The binding affinities of ROR1 extracellular domain dimer and monomer for anti-ROR1 antibodies were determined by surface plasmon resonance (SPR). ROR1 extracellular domain Fc-fusion, “dimer,” and ROR1 extracellular domain Fc fusion:Fc heterodimer, “monomer,” are the dimer and monomeric forms of ROR1 used for affinity analysis, respectively. Briefly, ROR1 dimer and monomer were directly immobilized to a CM4 chip using an amine coupling kit and 100 mM ethylenediamine in 100 mM Sodium Borate buffer, pH 8.0 as the blocking reagent. Approximately 100-150 RU of ROR1 dimer and monomer were immobilized on separate flow cells and an un-derivatized flow cell was used as a reference control. […] Dissociation was followed for 180 seconds. The association constant, dissociation constant, and affinity of each anti-ROR1 antibody was calculated using the Biacore T200 Evaluation Software 1:1 binding model.
(§3) Sensorgrams were normalized to 100 RU using the “binding stability point” at the end of the association phase but before the dissociation phase.

[3] = target: T5, ROR1 extracellular domain Fc fusion:Fc heterodimer, monomer (human); test: SPR, immobilised ROR1 monomer, antibody injected, 1:1 model
T5 construct: Heterodimer of one ROR1 ECD-Fc chain and one Fc chain; also called ROR1 monomer; hROR1 monomeric ECD-Fc fusion protein; not shown: Fc part; Fc alone
Description: as §2, §3

[4] = target: T4, ROR1 extracellular domain Fc-fusion, …; test: SPR, immobilised ROR1 dimer, antibody injected, 1:1 model; apparent affinity
Description: as §2, §3

[5] = target: T4, ROR1 extracellular domain Fc-fusion, …; test: SPR, immobilised ROR1 dimer, antibody injected, 1:1 model; second entry of 601-14
Description: as §2, §3

[6] = target: T5, ROR1 extracellular domain Fc fusion:Fc …; test: SPR, immobilised ROR1 monomer, antibody injected, 1:1 model; second entry of 601-14
Description: as §2, §3

[7] = target: T4, ROR1 extracellular domain Fc-fusion, …; test: SPR, immobilised ROR1 dimer, antibody injected, 1:1 model; apparent affinity; second entry of 601-14
Description: as §2, §3

T5 sequence (Q01973 30-406, one chain of several): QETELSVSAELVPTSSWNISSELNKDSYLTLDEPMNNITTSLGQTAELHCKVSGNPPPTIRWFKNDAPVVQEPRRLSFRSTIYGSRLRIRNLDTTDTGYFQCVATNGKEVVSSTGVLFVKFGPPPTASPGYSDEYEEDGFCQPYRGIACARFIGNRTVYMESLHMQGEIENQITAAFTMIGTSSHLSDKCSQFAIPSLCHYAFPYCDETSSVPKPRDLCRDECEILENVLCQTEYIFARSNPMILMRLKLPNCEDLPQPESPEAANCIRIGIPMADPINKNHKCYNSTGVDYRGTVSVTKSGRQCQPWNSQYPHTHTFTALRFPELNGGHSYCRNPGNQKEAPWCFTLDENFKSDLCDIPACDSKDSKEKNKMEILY
T3 sequence (Q01973 30-406 limits assumed): as the sequence (Q01973 30-406, one chain of several) above
T4 sequence (Q01973 30-406): as the sequence (Q01973 30-406, one chain of several) above
T1 sequence (Q9Z139 30-406): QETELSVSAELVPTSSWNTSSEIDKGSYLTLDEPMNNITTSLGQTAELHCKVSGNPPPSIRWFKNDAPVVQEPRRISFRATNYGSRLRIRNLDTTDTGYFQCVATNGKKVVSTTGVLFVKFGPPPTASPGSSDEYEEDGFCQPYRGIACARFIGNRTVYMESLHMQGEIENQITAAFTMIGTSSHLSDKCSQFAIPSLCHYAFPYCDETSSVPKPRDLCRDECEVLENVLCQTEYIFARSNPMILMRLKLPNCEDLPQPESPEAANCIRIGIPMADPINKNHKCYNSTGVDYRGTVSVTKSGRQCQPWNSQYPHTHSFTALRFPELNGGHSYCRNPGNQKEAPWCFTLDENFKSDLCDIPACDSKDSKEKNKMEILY
T2 sequence (Q01974 34-403): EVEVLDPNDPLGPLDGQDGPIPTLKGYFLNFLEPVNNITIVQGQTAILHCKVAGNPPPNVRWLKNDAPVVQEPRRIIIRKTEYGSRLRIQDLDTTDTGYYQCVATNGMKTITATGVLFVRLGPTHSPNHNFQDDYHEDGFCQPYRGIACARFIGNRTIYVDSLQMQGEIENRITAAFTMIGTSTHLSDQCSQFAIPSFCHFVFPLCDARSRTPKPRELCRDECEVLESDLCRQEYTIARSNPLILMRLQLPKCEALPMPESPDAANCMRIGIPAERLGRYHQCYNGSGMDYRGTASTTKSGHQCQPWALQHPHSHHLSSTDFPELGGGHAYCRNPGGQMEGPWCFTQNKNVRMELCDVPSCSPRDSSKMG

B1: P601-51 (scFv, V domains shown)
VH: not shown
VL: QSALTQPASVSGSPGQSITISCTGTSSDFGDYDYVSWYQQHPGKAPKLMIYDVSDRPSGVSNRFSGSKSGNTASLTISGLQAEDEADYFCSSFTTSSTLVFGGGTKLTVLG
binding result (mouse ROR1-ECD): no binding
binding result (human ROR2-ECD): no binding
IC50 [1]: 0.62 nM

B2: P601-37 (scFv, V domains shown)
VH: EVQLVQSGAEVKKPGASVKVSCKASGYTFNNYGFSWVRQAPGQGLEWMGWISVYNGNTNYAQKLQGRVTMTTDTSTSTAYMELRSLRSDDTAVYYCARDYYSDSSGYWDDAFDIWGQGTMVTVSS
VL: AIRMTQSPSSLSASVGDRVTITCQASQDISNYLNWYQQKPGKAPKLLIYAASSLQSGVPSRFSGSGSGTDFTLTISSLQPEDFATYYCQQSYSTPFTFGPGTKVDIK
binding result (mouse ROR1-ECD): binds
binding result (human ROR2-ECD): no binding
IC50 [1]: 27.9 nM

B3: P601-56 (scFv, V domains shown)
VH: QLQLQESGPGLVKPSETLSLTCTVSGGSISSSSYYWGWIRQPPGKGLEWIGSIYYSGSTYYNPSLKSRVTISVDTSKNQFSLKLGSVTAADTAVYYCARHDGTDAFDIWGQGTTVTVSS
VL: QSVLTQPASVSGSPGQSITISCTGTSSDFGDYDYVSWYQQHPGKAPKLMIYDVSDRPSGVSNRFSGSKSGNTASLTISGLQAEDEADYFCSSLTTSSTLVFGGGTKLTVL
binding result (mouse ROR1-ECD): no binding
binding result (human ROR2-ECD): no binding
IC50 [1]: 1.85 nM

B4: Antibody 601-14 (antibody, V domains shown)
VH: QVQLVQSGAEVKKPGESLKISCKDSGYSFTNYWLGWVRQMPGKGLEWMGIIYPGDSDTRYSPSFRGQVTISADKSISTAYLQWSSLKASDTAMYYCARLNLATHTAFDIWGQGTTVTVSS
VL: QSVLTQPASVSGSPGQSITISCTGTSSDVGGYNYVSWYQQHPGKAPKLMIYDVSNRPSGVSNRFSGSKSGNTASLTISGLQAEDEADYYCSSYTSSSTLWVFGGGTKLTVLG
koff [2]: 0.00066 s⁻¹
kon [2]: 2.7e+06 M⁻¹ s⁻¹
Kd [3]: 0.4 nM
koff [3]: 0.0013 s⁻¹
kon [3]: 3.2e+06 M⁻¹ s⁻¹
Kd [4]: 0.2 nM
koff [5]: 0.0015 s⁻¹
kon [5]: 2.4e+06 M⁻¹ s⁻¹
Kd [6]: 0.8 nM
koff [6]: 0.0021 s⁻¹
kon [6]: 2.4e+06 M⁻¹ s⁻¹
Kd [7]: 0.6 nM

B5: P601-28 (scFv, V domains shown)
VH: EVQLVQSGGDLVQPGGSLRLSCAASGFTFSSYSMNWVRQAPGKGLEWVSSISSSSSYIYYADSVKGRFTISRDNAKNSLYLQMNSLRAEDTAVYYCARGLGGWTHDAFDIWGQGTTVTVSS
VL: QSALTQPASVSGSPGQSITISCTGTSSDVGGYNYVSWYQQHPGKAPKLMIFDVSNRPSGVSNRFSGSKSGNTASLTISGLQAEDEADYYCSSYTSSSTLFGGGTKLTVL
binding result (mouse ROR1-ECD): binds
binding result (human ROR2-ECD): no binding
IC50 [1]: 8.05 nM
